Data published in patent US20040091475A1 (Chugai, published 2004).
Where a chain is given by its changes, count along the chain named.

How the values were obtained:
[1] = target: human TPO receptor (MPL) expressed on Ba/F3 cells (human) (UniProt P40238); experiment: cell-based or functional assay
[2] = target: T1, human TPO receptor (MPL) expressed on Ba/F3 cells (human, UniProt P40238 26-635); experiment: cell-based or functional assay
T1 sequence (looked up): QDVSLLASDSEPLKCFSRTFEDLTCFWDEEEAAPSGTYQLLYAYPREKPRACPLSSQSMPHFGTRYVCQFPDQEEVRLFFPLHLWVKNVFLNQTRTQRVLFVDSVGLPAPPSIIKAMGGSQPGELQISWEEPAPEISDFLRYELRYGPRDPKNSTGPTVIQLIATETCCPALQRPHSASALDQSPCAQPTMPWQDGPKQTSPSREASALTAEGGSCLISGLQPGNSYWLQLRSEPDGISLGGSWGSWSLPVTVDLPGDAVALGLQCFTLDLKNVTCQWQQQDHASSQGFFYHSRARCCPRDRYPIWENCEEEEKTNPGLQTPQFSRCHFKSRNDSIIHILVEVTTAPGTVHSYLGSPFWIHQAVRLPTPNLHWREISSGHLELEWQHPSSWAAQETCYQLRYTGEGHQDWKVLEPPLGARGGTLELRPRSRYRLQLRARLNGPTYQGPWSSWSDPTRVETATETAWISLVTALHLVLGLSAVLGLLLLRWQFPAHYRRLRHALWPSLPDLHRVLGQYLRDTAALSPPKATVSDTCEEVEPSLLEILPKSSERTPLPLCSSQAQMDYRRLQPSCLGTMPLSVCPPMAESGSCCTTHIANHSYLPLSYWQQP

[3] = target: T2, human Integrin Associated Protein (IAP) expressed on mouse leukemia cell line L1210 (human, UniProt Q08722 19-323); experiment: flow cytometry on L1210 cells expressing human IAP; COS7 culture supernatant; FITC-labeled anti-human IgG antibody
T2 construct: whole, on cells; also called human IAP; hIAP/L1210
T2 sequence (Q08722 19-323): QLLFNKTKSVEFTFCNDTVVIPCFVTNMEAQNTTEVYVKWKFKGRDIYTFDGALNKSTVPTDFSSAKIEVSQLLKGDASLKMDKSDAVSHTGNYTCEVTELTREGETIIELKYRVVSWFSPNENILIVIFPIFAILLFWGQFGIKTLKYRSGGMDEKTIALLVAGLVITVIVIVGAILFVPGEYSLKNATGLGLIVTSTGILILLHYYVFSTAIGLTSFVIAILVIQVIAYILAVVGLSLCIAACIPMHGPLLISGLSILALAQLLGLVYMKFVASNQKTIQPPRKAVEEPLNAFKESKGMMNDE

[4] = target: T2, human Integrin Associated Protein (IAP) …; experiment: flow cytometry on L1210 cells expressing human IAP; COS7 culture supernatant; mouse anti-FLAG antibody, then FITC-labeled anti-mouse IgG antibody
Procedure: Flow cytometry was performed using the culture supernatants of COS7 cells prepared in Example 6.3 (1) to measure the binding of the MABL2-scFVs and sc(Fv)₂ to human Integrin Associated Protein (IAP) antigen. The culture supernatants to be tested or a culture supernatant of COS7 cells as a control was added to 2×10⁵ cells of the mouse leukemia cell line L1210 expressing human IAP. After incubating on ice and washing, 10 μg/mL of the mouse anti-FLAG antibody (SIGMA) was added and then the cells were incubated and washed. Then, the FITC labeled anti-mouse IgG antibody (BECTON DICKINSON) was added thereto and the cells were incubated and washed again. The fluorescence intensity was measured using the FACScan apparatus (BECTON DICKINSON).

[5] = target: T2, human Integrin Associated Protein (IAP) …; experiment: flow cytometry, 10 µg/ml antibody on L1210 cells expressing human IAP (panel B), pCOS1/L1210 cells as control (panel A); FITC-labeled anti-mouse IgG antibody
Procedure: Flow cytometry was performed using the purified dimer of MABL2-scFv <HL-5> and the purified sc(Fv)₂ in order to evaluate the binding to human Integrin Associated Protein (IAP) antigen. 10 μg/ml of the purified dimer of MABL2-scFv <HL-5>, the purified sc(Fv)₂, the antibody MABL-2 as a positive control or a mouse IgG (Zymed) as a negative control was added to 2×10⁵ cells of the mouse leukemia cell line L1210 expressing human IAP (hIAP/L1210) or the cell line L1210 transformed with pCOS1 (pCOS1/L1210) as a control. After incubating on ice and washing, 10 μg/mL of the mouse anti-FLAG antibody (SIGMA) was added and then the cells were incubated and washed. FITC labeled anti-mouse IgG antibody (BECTON DICKINSON) was added thereto and the cells were incubated and washed again. Then the fluorescence intensity was measured using the FACScan apparatus (BECTON DICKINSON).

[6] = target: T2, human Integrin Associated Protein (IAP) …; experiment: flow cytometry on L1210 cells expressing human IAP; COS7 culture supernatant; FITC-labeled anti-human IgG antibody; remark: listed apart in the source
[7] = target: T2, human Integrin Associated Protein (IAP) …; experiment: flow cytometry on L1210 cells expressing human IAP; COS7 culture supernatant; mouse anti-FLAG antibody, then FITC-labeled anti-mouse IgG antibody; remark: listed apart in the source
Procedure: Flow cytometry was performed using the aforementioned COS7 cells culture supernatant to measure the binding to the antigen. The culture supernatant of the COS7 cells expressing the reconstructed single chain Fv of antibody MABL-2 or the culture supernatant of COS7 cells transformed with pCHO1 vector as a control was added to 2×10⁵ cells of the mouse leukemia cell line L1210 expressing human Integrin Associated Protein (IAP) or the cell line L1210 transformed with pCOS1 as a control. After incubating on ice and washing, the mouse anti-FLAG antibody (SIGMA) was added. Then the cells were incubated and washed. Then, the FITC labeled anti-mouse IgG antibody (BECTON DICKINSON) was added thereto and the cells were incubated and washed again. Subsequently, the fluorescence intensity was measured using the FACScan apparatus (BECTON DICKINSON).

[8] = target: T3, secretion-type human IAP antigen (human, UniProt Q08722 19-142, limits assumed); experiment: competitive ELISA: secretion-type human IAP captured on anti-FLAG antibody; competitor biotinized MABL-2 antibody at 100 ng/ml; serial dilutions of COS7 culture supernatant (x axis: dilution ratio of CM, no concentration unit)
T3 construct: captured on plates coated with anti-FLAG antibody
T3 sequence (Q08722 other isoform, or with tags, fused parts or gaps limits assumed): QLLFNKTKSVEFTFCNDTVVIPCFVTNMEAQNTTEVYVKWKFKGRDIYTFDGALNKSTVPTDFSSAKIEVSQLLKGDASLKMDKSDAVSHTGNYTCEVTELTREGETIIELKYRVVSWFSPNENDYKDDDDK
Procedure: The binding activity of the reconstructed single chain Fv of antibody MABL-2 was measured based on the inhibiting activity against the binding of mouse monoclonal antibodies to the antigen.
The anti-FLAG antibody adjusted to 1 μg/ml was added to each well on 96-well plate and incubated at 37° C. for 2 hours. After washing, blocking was performed with 1% BSA-PBS. After incubating and washing at a room temperature, the culture supernatant of COS7 cells into which the secretion-type human IAP antigen gene (SEQ ID No. 26) had been introduced was diluted with PBS into twofold volume and added to each well. After incubating and washing at a room temperature, a mixture of 50 μl of the biotinized MABL-2 antibody adjusted to 100 ng/ml and 50 μl of sequentially diluted supernatant of the COS7 cells expressing the reconstructed single chain Fv of antibody MABL-2 were added into each well. After incubating and washing at a room temperature, the alkaline phosphatase-conjugated streptoavidin (Zymed) was added into each well. After incubating and washing at a room temperature, the substrate solution (SIGMA) was added and absorbance of the reaction mixture in each well was measured at 405 nm.

human TPO (R&D Systems) (from UniProt P40225 22-353) (ligand)
proliferation of Ba/F3 cells expressing human TPO receptor (BaF/mpl), WST-8; ED50 [1]: 0.027 nM

B1: antibody 12B5 (IgG) (antibody, V domains shown)
VH: QVQLVQSGGGLVRPGGSLSLSCAVSGITLRTYGMHWVRQAPGKGLEWVAGISFDGRSEYYADSVQGRFTISRDSSKNTLYLQMNSLRAEDTAVYYCARGAHYGFDIWGQGTMVTVSS
VL: DIQMTQSPSTLSASIGDRVTITCRASEGIYHWLAWYQQKPGKAPKLLIYKASSLASGAPSRFSGSGSGTDFTLTISSLQPDDFATYYCQQYSNYPLTFGGGTKLEIK
TPO-like agonist activity: proliferation of Ba/F3 cells expressing human TPO receptor (BaF/mpl), WST-8; ED50 [2]: 29 nM

B2: 12B5Fab fragment (Fab, V domains shown)
VH: B1 VH
VL: B1 VL
TPO-like agonist activity: proliferation of Ba/F3 cells expressing human TPO receptor (BaF/mpl), WST-8; ED50 [2]: 34700 nM

B3: reconstructed 12B5 single chain Fv (sc12B5), culture supernatant of COS-7 cells (scFv)
scFv: QVQLVQSGGGLVRPGGSLSLSCAVSGITLRTYGMHWVRQAPGKGLEWVAGISFDGRSEYYADSVQGRFTISRDSSKNTLYLQMNSLRAEDTAVYYCARGAHYGFDIWGQGTMVTVSSGGGGSGGGGSGGGGSDIQMTQSPSTLSASIGDRVTITCRASEGIYHWLAWYQQKPGKAPKLLIYKASSLASGAPSRFSGSGSGTDFTLTISSLQPDDFATYYCQQYSNYPLTFGGGTKLEIKDYKDDDDK
TPO-like agonist activity: proliferation of Ba/F3 cells expressing human TPO receptor (BaF/mpl), WST-8; ED50 [2]: 75 nM

B4: sc12B5 monomer (scFv)
scFv: B3 scFv
TPO-like agonist activity: proliferation of Ba/F3 cells expressing human TPO receptor (BaF/mpl), WST-8; ED50 [2]: 4440 nM

B5: sc12B5 dimer (scFv)
scFv: B3 scFv
TPO-like agonist activity: fold against monovalent sc12B5 [2]: ~400 fold | TPO-like agonist activity: proliferation of Ba/F3 cells expressing human TPO receptor (BaF/mpl), WST-8; ED50 [2]: 10.1 nM

B6: chimera MABL-1 antibody (antibody, V domains shown)
VH: QVQLQQSGPDLVKPGASVKMSCKASGYTFVNHVMHWVKQKPGQGLEWIGYIYPYNDGTKYNEKFKGKATLTSEKSSSAAYMELSSLASEDSAVYYCARGGYYSYDDWGQGTTLTVSS
VL: DVVMTQTPLSLPVSLGDQASISCRSSQSLLHSKGNTYLQWYLQKPGQSPKLLIYKVSNRFSGVPDRFSGSGSGTDFTLKISRVEAEDLGVYFCSQSTHVPYTSGGGTKLEIK
notes: Mouse MABL-1 V regions cloned into HEF-gamma and HEF-kappa expression vectors (human constant regions); tested as COS7 culture supernatant
binding result [3]: binds

B7: antibody MABL-2 sc(Fv)2 (scFv)
chain: QVQLQQSGPELVKPGASVKMSCKASGYTFANHVIHWVKQKPGQGLEWIGYIYPYNDGTKYNEKFKDKATLTSDKSSTTAYMDLSSLASEDSAVYYCARGGYYTYDDWGQGTTLTVSSGGGGSGGGGSGGGGSDVVMTQSPLSLPVSLGDQASISCRSSQSLVHSNGKTYLHWYLQKPGQSPKLLIYKVSNRFSGVPDRFSGSGSVTDFTLMISRVEAEDLGVYFCSQSTHVPYTFGGGTKLEIKGGGGSGGGGSGGGGSVDSQVQLQQSGPELVKPGASVKMSCKASGYTFANHVIHWVKQKPGQGLEWIGYIYPYNDGTKYNEKFKDKATLTSDKSSTTAYMDLSSLASEDSAVYYCARGGYYTYDDWGQGTTLTVSSGGGGSGGGGSGGGGSDVVMTQSPLSLPVSLGDQASISCRSSQSLVHSNGKTYLHWYLQKPGQSPKLLIYKVSNRFSGVPDRFSGSGSVTDFTLMISRVEAEDLGVYFCSQSTHVPYTFGGGTKLEIKDYKDDDDK
notes: Single chain polypeptide with two H chain V regions and two L chain V regions of MABL-2, FLAG at the C-terminus; eluted at the position of the monomer; also called pCHOM2(Fv)2
binding result [4]: binds

B8: mouse monoclonal antibody MABL-2 (antibody, V domains shown)
VH: B6 VH with D10E, V30A, M34I, G66D, E73D, S77T, A78T, E82D, S103T
VL: B6 VL with T7S, L30V, K33N, N35K, Q39H, G73V, K79M, S103F
notes: Whole mouse antibody from hybridoma MABL-2 (H chain amplified with the MHC-gamma2a primer, kappa L chain); also called MABL-2 (intact)
binding result [5]: binds

B9: chimera MABL-2 antibody (antibody, V domains shown)
VH: B6 VH with D10E, V30A, M34I, G66D, E73D, S77T, A78T, E82D, S103T
VL: B6 VL with T7S, L30V, K33N, N35K, Q39H, G73V, K79M, S103F
notes: Mouse MABL-2 V regions cloned into HEF-gamma and HEF-kappa expression vectors (human constant regions); tested as COS7 culture supernatant
binding result [6]: binds

B10: reconstructed single chain Fv of antibody MABL-2 (plasmid pCHOM2), culture supernatant of COS7 cells (scFv)
scFv: QVQLQQSGPELVKPGASVKMSCKASGYTFANHVIHWVKQKPGQGLEWIGYIYPYNDGTKYNEKFKDKATLTSDKSSTTAYMDLSSLASEDSAVYYCARGGYYTYDDWGQGTTLTVSSGGGGSGGGGSGGGGSDVVMTQSPLSLPVSLGDQASISCRSSQSLVHSNGKTYLHWYLQKPGQSPKLLIYKVSNRFSGVPDRFSGSGSVTDFTLMISRVEAEDLGVYFCSQSTHVPYTFGGGTKLEIKDYKDDDDK
notes: VH-(Gly4Ser)3-VL-FLAG; Unfractionated supernatant (monomer and dimer not separated); also called MABL2-scFv; MABL2-scFv/COS7
binding result [7]: binds | binding result [8]: binds
